Data taken from patent EP4717706A1.

B1: AVR21 with I319N, Y377F (receptor)
chain: MGSAGESDQNTLPKHEAQLNVYVLLVPPKGEASTYDWQLITHPRDYSGEMEGEHSQILKLSNLTPGLFEYRAVVEGQNAHSEGYVNVTVEPEPRKNRPPIAIVSPQFQEISLPTTSTVIDGSQSTDDDKIVQYHWEELKGPLREEKISEDTAILKLSQLVPGNYTFRLTVVDTDGATDSTTADLTVNKAVDHHHHHH
B2: AVR21 with D345G, E454D (receptor)
chain: MGSAGESDQITLPKHEAQLNVYVLLVPPKGEASTYGWQLITHPRDYSGEMEGEHSQILKLSNLTPGLYEYRAVVEGQNAHSEGYVNVTVEPEPRKNRPPIAIVSPQFQEISLPTTSTVIDGSQSTDDDKIVQYHWEELKGPLREDKISEDTAILKLSQLVPGNYTFRLTVVDTDGATDSTTADLTVNKAVDHHHHHH
B3: AVR21 with K338R, A461P (receptor)
chain: MGSAGESDQITLPKHEAQLNVYVLLVPPRGEASTYDWQLITHPRDYSGEMEGEHSQILKLSNLTPGLYEYRAVVEGQNAHSEGYVNVTVEPEPRKNRPPIAIVSPQFQEISLPTTSTVIDGSQSTDDDKIVQYHWEELKGPLREEKISEDTPILKLSQLVPGNYTFRLTVVDTDGATDSTTADLTVNKAVDHHHHHH
B4: AVR21 with E360D, H389R (receptor)
chain: MGSAGESDQITLPKHEAQLNVYVLLVPPKGEASTYDWQLITHPRDYSGEMDGEHSQILKLSNLTPGLYEYRAVVEGQNARSEGYVNVTVEPEPRKNRPPIAIVSPQFQEISLPTTSTVIDGSQSTDDDKIVQYHWEELKGPLREEKISEDTAILKLSQLVPGNYTFRLTVVDTDGATDSTTADLTVNKAVDHHHHHH
B5: AVR21 with Q347K, N472K (receptor)
chain: MGSAGESDQITLPKHEAQLNVYVLLVPPKGEASTYDWKLITHPRDYSGEMEGEHSQILKLSNLTPGLYEYRAVVEGQNAHSEGYVNVTVEPEPRKNRPPIAIVSPQFQEISLPTTSTVIDGSQSTDDDKIVQYHWEELKGPLREEKISEDTAILKLSQLVPGKYTFRLTVVDTDGATDSTTADLTVNKAVDHHHHHH
B6: AVR21 with Q365R, V(A)381T, K497E (receptor)
chain: MGSAGESDQITLPKHEAQLNVYVLLVPPKGEASTYDWQLITHPRDYSGEMEGEHSRILKLSNLTPGLYEYRTVVEGQNAHSEGYVNVTVEPEPRKNRPPIAIVSPQFQEISLPTTSTVIDGSQSTDDDKIVQYHWEELKGPLREEKISEDTAILKLSQLVPGNYTFRLTVVDTDGATDSTTADLTVNEAVDHHHHHH
B7: AVR21 with Y344F, T350A, Y377N (receptor)
chain: MGSAGESDQITLPKHEAQLNVYVLLVPPKGEASTFDWQLIAHPRDYSGEMEGEHSQILKLSNLTPGLNEYRAVVEGQNAHSEGYVNVTVEPEPRKNRPPIAIVSPQFQEISLPTTSTVIDGSQSTDDDKIVQYHWEELKGPLREEKISEDTAILKLSQLVPGNYTFRLTVVDTDGATDSTTADLTVNKAVDHHHHHH
B8: AVR21 with E340G (receptor)
chain: MGSAGESDQITLPKHEAQLNVYVLLVPPKGGASTYDWQLITHPRDYSGEMEGEHSQILKLSNLTPGLYEYRAVVEGQNAHSEGYVNVTVEPEPRKNRPPIAIVSPQFQEISLPTTSTVIDGSQSTDDDKIVQYHWEELKGPLREEKISEDTAILKLSQLVPGNYTFRLTVVDTDGATDSTTADLTVNKAVDHHHHHH
B9: AVR21 with T343A, K(N)371D (receptor)
chain: MGSAGESDQITLPKHEAQLNVYVLLVPPKGEASAYDWQLITHPRDYSGEMEGEHSQILKLSDLTPGLYEYRAVVEGQNAHSEGYVNVTVEPEPRKNRPPIAIVSPQFQEISLPTTSTVIDGSQSTDDDKIVQYHWEELKGPLREEKISEDTAILKLSQLVPGNYTFRLTVVDTDGATDSTTADLTVNKAVDHHHHHH

Each binder was assayed against VLP2 (virus-like particles, capsid protein particles of AAV serotype 2) (AAV serotype 2 (AAV2)) (UniProt P03135) (assay: ELISA on immobilised VLP2 (culture supernatant, anti-His detection); A450 after 1:1 0.5 M NaOH, 30 min, 30°C divided by A450 untreated).
Chain of UniProt P03135 (P03135 whole entry): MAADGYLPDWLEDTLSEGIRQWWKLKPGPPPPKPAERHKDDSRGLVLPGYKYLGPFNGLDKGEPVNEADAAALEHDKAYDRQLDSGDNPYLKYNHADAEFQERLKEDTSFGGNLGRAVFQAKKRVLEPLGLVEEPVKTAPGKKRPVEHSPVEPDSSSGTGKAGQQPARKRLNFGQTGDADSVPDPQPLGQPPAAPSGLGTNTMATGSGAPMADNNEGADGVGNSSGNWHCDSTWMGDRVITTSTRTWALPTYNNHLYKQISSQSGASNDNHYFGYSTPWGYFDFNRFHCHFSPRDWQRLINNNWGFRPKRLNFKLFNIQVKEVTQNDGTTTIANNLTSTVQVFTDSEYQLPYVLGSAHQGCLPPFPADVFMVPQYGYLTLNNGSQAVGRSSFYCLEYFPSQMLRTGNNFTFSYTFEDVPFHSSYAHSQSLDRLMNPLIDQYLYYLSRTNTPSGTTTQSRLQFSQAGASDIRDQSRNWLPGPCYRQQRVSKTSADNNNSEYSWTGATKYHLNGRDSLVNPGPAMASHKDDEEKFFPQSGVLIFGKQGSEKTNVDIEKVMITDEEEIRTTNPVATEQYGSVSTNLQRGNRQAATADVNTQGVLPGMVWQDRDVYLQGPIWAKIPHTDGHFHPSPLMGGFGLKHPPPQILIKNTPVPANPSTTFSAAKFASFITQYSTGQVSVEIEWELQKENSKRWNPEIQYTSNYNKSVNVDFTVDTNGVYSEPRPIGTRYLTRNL
Binder B1 has a Remaining activity [%] of 45.1%. Work on B2 yielded a Remaining activity [%] of 61.7%. For B3, the Remaining activity [%] was 36.4%. B4 was tested, and the Remaining activity [%] was 46.7%. B5 showed a Remaining activity [%] of 58.9%. B6 gave a Remaining activity [%] of 42%. In the case of B7, the Remaining activity [%] is reported as 34.4%. With B8 the Remaining activity [%] was 28.1%. Work on B9 yielded a Remaining activity [%] of 40.5%.
